From patent US20240392013A1, “IL1RAP ANTIBODIES AND USES THEREOF” (STELEXIS THERAPEUTICS, LLC, priority 2021, published 2024)

T1: IL1R1/IL1β/IL1RAP complex (Homo sapiens, UniProt Q9NPH3)
T1 construct: extracellular domain Fc-tagged, Cat #10121-H02H; Fc; purchased Sino Biological 10121-H02H (IL1RAP-Fc); 10126-H08H (IL1R1-His); 10139-HNAE (IL1β)
T1 sequence (Q9NPH3 21-367 limits assumed): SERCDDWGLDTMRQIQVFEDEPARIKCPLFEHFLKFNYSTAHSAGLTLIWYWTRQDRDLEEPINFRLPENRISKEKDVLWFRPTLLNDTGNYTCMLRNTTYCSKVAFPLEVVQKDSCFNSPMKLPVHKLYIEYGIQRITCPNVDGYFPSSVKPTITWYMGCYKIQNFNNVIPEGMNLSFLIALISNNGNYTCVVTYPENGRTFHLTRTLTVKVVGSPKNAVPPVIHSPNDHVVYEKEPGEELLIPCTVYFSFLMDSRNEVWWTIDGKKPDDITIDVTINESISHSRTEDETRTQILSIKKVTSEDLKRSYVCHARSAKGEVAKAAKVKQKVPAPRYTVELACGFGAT

T2: hIL1RAP (Homo sapiens, UniProt Q9NPH3)
T2 sequence (Q9NPH3 21-367 limits assumed): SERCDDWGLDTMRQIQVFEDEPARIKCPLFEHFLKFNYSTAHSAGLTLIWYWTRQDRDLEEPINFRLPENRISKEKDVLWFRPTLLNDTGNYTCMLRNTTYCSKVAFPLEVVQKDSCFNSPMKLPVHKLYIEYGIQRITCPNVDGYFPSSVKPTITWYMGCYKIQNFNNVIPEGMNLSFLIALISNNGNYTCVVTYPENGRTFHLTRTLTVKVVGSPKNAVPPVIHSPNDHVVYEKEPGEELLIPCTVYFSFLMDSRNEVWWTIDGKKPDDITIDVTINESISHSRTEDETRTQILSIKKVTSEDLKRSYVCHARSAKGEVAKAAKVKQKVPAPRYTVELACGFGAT


Key:
[1] = target: T1, IL1R1/IL1β/IL1RAP complex; experiment: Blocking of IL1R1/IL1β/IL1RAP complex formation, cell-free ELISA; type: biochemical; conditions: FIG. 4
Procedure: High-binding 96-well plates were coated with IL1RAP-Fc protein (Sino Biological, Cat #10121-H02H) at concentration of 4 µg/ml and incubated overnight at 4° C. After 3× washes with 0.05% Tween-20 in PBS, pH 7.5, plates were blocked with 1% BSA in PBS for 1 hour at room temperature. Following, wells were incubated with each antibody at concentration of 50 nM for 1 hour at room temperature. Plates were then washed 3× and wells were incubated with premixed complex of IL1R1-His protein (Sino Biological, Cat #10126-H08H) at concentration of […] and IL1β cytokine (Sino Biological, Cat #10139-HNAE) at concentration of […] 1 hour at room temperature. IL1R1/IL1β complex was preincubated in assay buffer (1% BSA in PBS, pH 7.5) for 20 min at room temperature. After 3× washes, plates were incubated with anti-His HRP detection antibody (Medna, Cat #D8212, […]) for 1 hour at room temperature. Following 5× washes, SuperPico chemiluminescent substrate was applied to wells and signal was read on Spectramax M5.

hIL1RAP = target: T2, hIL1RAP; experiment: Kinetics of IL1RAP mAbs by Octet, human IL1RAP; type: binding; parameters: extracellular domain His-tagged, Cat #10121-H08H; His; purchased Sino Biological lot MB08MA1301 (catalogue number not given)
Procedure: Antibodies were diluted in kinetics buffer (0.1% BSA, 0.02% Tween-20 and 0.05% NaN3 in PBS) and loaded onto 16 channel anti-mouse IgG Fc capture sensors (AMC, Cat #2001073; Sartorius, Göttingen, Germany). Human, huIL1RAP-His (Sino Biological, lot: MB08MA1301), and monkey, cyIL1RAP-His (Lake Pharma, NY, USA; lot:16205819371) proteins were titrated starting from the highest concentration of 100 nM and followed by 50 nM and 25 nM. Purified antibodies were loaded at 5 μg/ml in kinetics buffer. The experimental parameters selected to determine the kinetic constants were Baseline for 60 s, Loading of antibody to sensor for 180 s, Association of analyte to antibody for 120 s, Dissociation for 1200 s and Regeneration in 10 mM Glycine pH 1.7 for 4×30 s.
Regeneration cycle tracking was selected for 12 cycles. Binding to human and cynomolgus IL1RAP was measured and KD (M) kinetics were calculated. Also, the disassociation rate (Kdis) (1/s) and association rate (Kon) (1/Ms) kinetics were calculated (data not shown).

A549 cells = experiment: IL-1-induced IL-6 secretion, ELISA; type: cell-based, human; conditions: 66 nM-2 μM, 72 hours, dose-dependent
Procedure: Methods: A549 cells were seeded on CytoOne® 24 well plate (USA Scientific, Cat #CC7682-7524) at 0.05×10^6/mL and were kept at 37° C./5% CO2 in humified incubator. After 6 hours, the cells were treated with IL-1β (0.5 ng/ml) in the presence or absence of IL1RAP antibodies at 66 nM, 200 nM, 666 nM and 2 μM at 37° C./5% CO2 in humified incubator. Cell culture media was collected after 72 hours and was centrifuged at 4° C. for 5 min. All supernatant samples were analyzed in triplicates. Human IL-6 microplate (R&D Part #890045) was incubated for 2 hours at room temperature with standard, control, or supernatant samples (100 μl) diluted in assay diluent RD1W (100 μl). Samples were aspirated and washed with wash buffer (R&D, cat #895003) four times. Human IL-6 conjugate (200p1) (R&D, cat #890046) was added to each well and incubated for 2 hours at room temperature. Aspiration/wash step was repeated as stated above. Equal volume of substrate color reagent A (R&D, cat #895000) and B (R&D, cat #895001) were mixed, and the substrate solution (200 μl) was added to each well and incubated for 20 minutes at room temperature in the dark. Stop solution (50p1) (R&D, cat #895032) was added to each well and optical density was determined at 450 nm by Cytation™ Cell Imaging Multi-Mode Reader (BioTek).

THP-1 cells = experiment: Jurkat-Lucia NFAT-CD16 ADCC reporter assay against THP-1 cells; type: cell-based, human; conditions: THP-1 target cells
From the text: Methods: ADCC activity is mediated through binding of NK cell's CD16 receptors to the Fc region of antibodies. A Jurkat-Lucia NFAT-CD16 ADCC Reporter cell assay (Invivogen, Cat #jktl-nfat-cd16; https://www.invivogen.com/jurkat-lucia-nfat-adcc-adcp-cells) was used to analyze IL1RAP mAb STLX2012 for ADCC activity. Briefly, the Jurkat cell line was engineered to express the cell surface Fc receptor CD16A (FcγRIIIA) and the Lucia luciferase reporter gene. ADCC is triggered by CD16A cross-linking upon antigen-bound antibody binding at the surface of immune effector cells. Cells are maintained in the presence of zeocin (100 μg/ml) and blasticidin (10 μg/ml).

Molecule | Blocking of IL1R1/IL1β/IL1RAP complex formation [1] | hIL1RAP kdis(1/s) (hIL1RAP) | hIL1RAP kon(1/Ms) (hIL1RAP) | IL-1-induced IL-6 secretion (A549 cells) | ADCC activity (reporter) (THP-1 cells)
74804_12A21B: anti-IL1RAP mAb; VH SEQ ID NO:6, VL SEQ ID NO:23, κ light chain (antibody, V domains shown, 74804_12A21B VH and 74804_29D13A VH; 74804_12A21B VL) VH: QVQLLQSGAEVKKPGSSVKVSCKASGGTFSIYAIDWVRQAPGQGLEWMGGIIPIFGTANSAQKFQGRVTITADKSTSTAYMELSSLRSEDTAVYYCARNGATSDAFDMWGQGTMVTVSS VL: EIVLTQSPGTLSLSPGERATLSCRASLSVSSNYLAWFQQRPGQAPRLLIHGVSRRATGIPDRFSGSGSGTDFTLTISRLEPEDFAVYYCQQYGSSPLTFGGGTKVEIK | block IL1R1/IL1β/IL1RAP complex formation in a dose dependent manner | 0.000287 s⁻¹ | 307700 M⁻¹ s⁻¹ | inhibited | showed ADCC activity
74804_43F04A: anti-IL1RAP mAb; VH SEQ ID NO:7, VL SEQ ID NO:22, κ light chain (antibody, V domains shown, 74804_43F04A VH; 74804_07K10A VL, 74804_29D13A VL and 74804_43F04A VL) VH: QVQLLQSGAEVKKPGSSVKVSCKASGGTFSIYAIDWVRQAPGQGLEWMGGIIPIFGTENSAQNFQGRITITADKSTNTAYMELSSLRSEDTAVYYCARNGATSDAFDIWGQGTMVTVFS VL: EIVLTQSPGTLSLSPGERATLSCRASLSVSSNYLAWFQQRPGQAPRLLIYGVSRRATGIPDRFSGSGSGTDFTLTISRLEPEDFAVYYCQQYGSSPLTFGGGTKVEIK | block IL1R1/IL1β/IL1RAP complex formation in a dose dependent manner | 0.000149 s⁻¹ | 350200 M⁻¹ s⁻¹ | inhibited | –
